Measured values as given in patent publication US20150057236.

B1: human Sirt3 (protein)
chain: ISFSVGASSVVGSGGSSDKGKLSLQDVAELIRARACQRVVVMVGAGISTPSGIPDFRSPGSGLYSNLQQYDLPYPEAIFELPFFFHNPKPFFTLAKELYPGNYKPNVTHYFLRLLHDKGLLLRLYTQNIDGLERVSGIPASKLVEAHGTFASATCTVCQRPFPGEDIRADVMADRVPRCPVCTGVVKPDIVFFGEPLPQRFLLHVVDFPMADLLLILGTSLEVEPFASLTEAVRSSVPRLLINRDLVGPLAWHPRSRDVAQLGDVVHGVESLVELLGWTEEMRDLVQRETGKLDGPDK
B2: human Sirt1 (protein)
chain: MADEAALALQPGGSPSAAGADREAASSPAGEPLRKRPRRDGPGLERSPGEPGGAAPEREVPAAARGCPGAAAAALWREAEAEAAAAGGEQEAQATAAAGEGDNGPGLQGPSREPPLADNLYDEDDDDEGEEEEEAAAAAIGYRDNLLFGDEIITNGFHSCESDEEDRASHASSSDWTPRPRIGPYTFVQQHLMIGTDPRTILKDLLPETIPPPELDDMTLWQIVINILSEPPKRKKRKDINTIEDAVKLLQECKKIIVLTGAGVSVSCGIPDFRSRDGIYARLAVDFPDLPDPQAMFDIEYFRKDPRPFFKFAKEIYPGQFQPSLCHKFIALSDKEGKLLRNYTQNIDTLEQVAGIQRIIQCHGSFATASCLICKYKVDCEAVRGDIFNQVVPRCPRCPADEPLAIMKPEIVFFGENLPEQFHRAMKYDKDEVDLLIVIGSSLKVRPVALIPSSIPHEVPQILINREPLPHLHFDVELLGDCDVIINELCHRLGGEYAKLCCNPVKLSEITEKPPRTQKELAYLSELPPTPLHVSEDSSSPERTSPPDSSVIVTLLDQAAKSNDDLDVSESKGCMEEKPQEVQTSRNVESIAEQMENPDLKNVGSSTGEKNERTSVAGTVRKCWPNRVAKEQISRRLDGNQYLFLPPNRYIFHGAEVYSDSEDDVLSSSSCGSNSDSGTCQSPSLEEPMEDESEIEEFYNGLEDEPDVPERAGGAGFGTDGDDQEAINEAISVKQEVTDMNYPSNKS
B3: human Sirt2 (protein)
chain: MAEPDPSHPLETQAGKVQEAQDSDSDSEGGAAGGEADMDFLRNLFSQTLSLGSQKERLLDELTLEGVARYMQSERCRRVICLVGAGISTSAGIPDFRSPSTGLYDNLEKYHLPYPEAIFEISYFKKHPEPFFALAKELYPGQFKPTICHYFMRLLKDKGLLLRCYTQNIDTLERIAGLEQEDLVEAHGTFYTSHCVSASCRHEYPLSWMKEKIFSEVTPKCEDCQSLVKPDIVFFGESLPARFFSCMQSDFLKVDLLLVMGTSLQVQPFASLISKAPLSTPRLLINKEKAGQSDPFLGMIMGLGGGMDFDSKKAYRDVAWLGECDQGCLALAELLGWKKELEDLVRREHASIDAQSGAGVPNPSTSASPKKSPPPAKDEARTTEREKPQ
B4: human Sirt7 (protein)
chain: MAAGGLSRSERKAAERVRRLREEQQRERLRQVSRILRKAAAERSAEEGRLLAESADLVTELQGRSRRREGLKRRQEEVCDDPEELRGKVRELASAVRNAKYLVVYTGAGISTAASIPDYRGPNGVWTLLQKGRSVSAADLSEAEPTLTHMSITRLHEQKLVQHVVSQNCDGLHLRSGLPRTAISELHGNMYIEVCTSCVPNREYVRVFDVTERTALHRHQTGRTCHKCGTQLRDTIVHFGERGTLGQPLNWEAATEAASRADTILCLGSSLKVLKKYPRLWCMTKPPSRRPKLYIVNLQWTPKDDWAALKLHGKCDDVMRLLMAELGLEIPAYSRWQDPIFSLATPLRAGEEGSHSRKSLCRSREEAPPGDRGAPLSSAPILGGWFGRGCTKRTKRKKVT

Row | Protein | Km for acetyl peptide (H3K9 acetyl peptide) [µM] | kcat (H3K9 acetyl peptide) [s⁻¹] | kcat/Km (s^-1M^-1) (H3K9 acetyl peptide) | hydrolysis of acyl peptide (LC-MS) (H3K9 acetyl peptide) | hydrolysis of acyl peptide (LC-MS) (H3K9 malonyl peptide) | hydrolysis of acyl peptide (LC-MS) (H3K9 succinyl peptide)
1 | B1 | 50 | 0.012 | 240 |  |  | 
2 | B2 | 38 | 0.039 | 1000 | Sirt1 catalyzed the hydrolysis of the acetyl peptide | but not the malonyl and succinyl peptides | but not the malonyl and succinyl peptides
3 | B3 | 190 | 0.03 | 160 |  |  | 
4 | B4 |  |  |  | Sirt6 and Sirt7 have no detectable activity on acetyl, malonyl, or succinyl peptides under the conditions tested | Sirt6 and Sirt7 have no detectable activity on acetyl, malonyl, or succinyl peptides under the conditions tested | Sirt6 and Sirt7 have no detectable activity on acetyl, malonyl, or succinyl peptides under the conditions tested
